Data: article PMC2428073, “Architecture of a Serine Recombinase-DNA Regulatory Complex” (Molecular Cell, 2008)
Where “and” joins values, the source holds several entries; their conditions need not be identical. Identical values can stand only once.

Columns and labels:
[1] = molecular target: T1, Sin recombinase (pI9789 Sin) (Staphylococcus aureus (multiresistance …, UniProt P20384 1-202)); assay: X-ray crystallography (MAD/SIRAS, 3.21 A); Crystal structure; protein stored in 25 mM Tris pH 7.5, 0.5 mM EDTA, 400 mM (NH4)2SO4, 20% glycerol; DNA annealed in 100 mM NaCl; crystallization conditions not in the material; details: protein: recombinant; tags: His6 (C-terminal); chain copies: 2; overhanging AT dinucleotides pairing with adjacent duplexes
T1 sequence: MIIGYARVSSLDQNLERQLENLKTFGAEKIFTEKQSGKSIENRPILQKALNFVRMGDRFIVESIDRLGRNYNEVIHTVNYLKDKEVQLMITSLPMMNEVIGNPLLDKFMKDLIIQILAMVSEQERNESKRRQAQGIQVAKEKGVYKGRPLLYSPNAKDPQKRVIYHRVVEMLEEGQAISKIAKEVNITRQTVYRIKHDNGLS

[2] = molecular target: the molecule itself; assay: crystal structure; WT Sin cocrystallized with a 29 bp site II DNA duplex (2:1.25 molar ratio), hanging drop, 25 mM TRIS pH 7.5, (NH4)2SO4; two DNA-bound Sin dimers per asymmetric unit; 3.21 Å

B1: Sin res site II 29 bp duplex (dsDNA)
DNA 1: AACGTATGATTAGGGTGTATATTAATTTATA
DNA 2: TAAATTAATATACACCCTAATCATACGTTTA
modifications: 5-Br-dU and iodine-labelled versions used for phasing
binding result [1]: binds

B2: Wild-type His6-tagged pI9789 Sin (enzyme, S. aureus, UniProt P20384 1-202, looked up)
chain: MIIGYARVSSLDQNLERQLENLKTFGAEKIFTEKQSGKSIENRPILQKALNFVRMGDRFIVESIDRLGRNYNEVIHTVNYLKDKEVQLMITSLPMMNEVIGNPLLDKFMKDLIIQILAMVSEQERNESKRRQAQGIQVAKEKGVYKGRPLLYSPNAKDPQKRVIYHRVVEMLEEGQAISKIAKEVNITRQTVYRIKHDNGLS
notes: Sin resolvase (serine recombinase family) encoded by S. aureus plasmid pI9789; the crystal holds 836 Sin residues in four monomers (209 each, with the tag); The last nine residues, which contain the His6 tag, are not seen in the model; In the in vivo synapsis assay WT Sin was expressed from pSA9944 (also with a C-terminal His6 tag) in E. coli DS941; also called WT Sin; Sin resolvase; source: E. …
stoichiometry N [2]: 2 and 4
